Legend:
[1] = target: NKG2A on primary human NK cells (human, UniProt P26715 1-233); assay: cell-based or functional assay
[2] = target: T1, human NKG2A and human CD94 expressed on transiently transfected CHO-S cells (human, UniProt Q13241 1-179); assay: blocking of PE-conjugated HLA-E pentamer binding to transiently transfected CHO-S cells, flow cytometry (percentage binding) [panel A hNKG2A]
T1 construct: whole, on cells; also called human NKG2A/CD94 heterodimer
Experimental: (§1) CHO-S cells were transiently transfected with constructs for expression of human NKG2A and human CD94, human NKG2C and human CD94, cynomolgus NKG2A and cynomolgus CD94, or cynomolgus NKG2C and cynomolgus CD94. Mock transfected CHO-S cells were included in the assay as negative control. A PE-conjugated HLA-E pentamer was tested for binding to the heterodimers in the presence of anti-human NKG2A antibodies in 3-fold serial dilutions from 10 μg/mL down to 14 ng/mL antibody, and 0 μg/mL antibody. The antibodies were allowed to bind for 30 min at 4° C. prior to the addition of the HLA-E pentamer in a 1:50 dilution. The fluorescence intensity of HLA-E binding to the transfected cells was measured by high throughput flow cytometry (IQue screener, Sartorius). Data were transferred to Excel and graphs were generated using GraphPad Prism® software.

[3] = target: T2, recombinant human NKG2C/CD94 heterodimer (extracellular domains) (human, UniProt P26717 94-231; Q13241 32-179); assay: SPR (IBIS MX96), mAb captured on anti-human IgG Fc, ECD heterodimer injected, 1:1 fit
T2 construct: extracellular domain; also called HuNKG2C/huCD94; NKG2C/CD94 ECDs
Experimental: (§2) Kinetic binding analysis of anti-NKG2A monoclonal antibodies (mAbs) was performed by Surface Plasmon Resonance (SPR) using a Continuous Flow Microspotter (CFM, Wasatch Microfluidics, Salt Lake City, US) combined with an IBIS MX96 SPR instrument (IBIS Technologies, The Netherlands). The extracellular domains (ECDs) of human his-tagged NKG2A, NKG2C and FLAG-tagged CD94 were co-expressed using an Expi293™ expression system and purified by standard Ni-NTA chromatography followed by anti-Flag M2 affinity gel (A2220, Sigma). Binding kinetics were measured by capturing mAbs on a G-a-hu-IgG Fc SensEye® for 15 minutes using the CFM. After spotting, the SensEye® was positioned in the IBIS MX96 biosensor and immobilized mAbs were fixed by SensEye FixIt kit. Kinetic analysis was performed by applying a kinetic titration series injecting increasing concentrations of antigens from 1.6 nM to 400 nM as 2-fold dilutions. After each cycle of antigen injection, the surface was regenerated by 100 mM H₃PO₄, pH 3. Antigen association and dissociation were measured for 15 minutes. The recorded binding responses were fitted to a simple 1:1 binding model with Scrubber 2.0 software for calculation of the on-rate (kₒₙ or kₐ), off-rate (Koff or kd) and affinity (KD) constants. Binding kinetic parameters were measured as an average of three independent measuring points.

[4] = target: T3, recombinant human NKG2A/CD94 heterodimer (extracellular domains) (human, UniProt Q13241 32-179); assay: as above
T3 construct: extracellular domain; ECDs co-expressed in Expi293, purified by Ni-NTA and anti-Flag; also called HuNKG2A/huCD94; NKG2A/CD94 ECDs
Experimental: as §2

[5] = target: T1, human NKG2A and human CD94 expressed on …; assay: flow cytometry, transiently transfected CHO-S cells, AF647 goat anti-human IgG secondary (MFI) [cont.), panel 23765]
Experimental: (§3) CHO-S cells were transiently transfected with human NKG2A and human CD94, human NKG2C and human CD94, cynomolgus NKG2A and cynomolgus CD94 or cynomolgus NKG2C and cynomolgus CD94 constructs. Mock transfected CHO-S cells were included in the assay as a negative control. Antibodies were tested for binding to the transfected cells in 3-fold dilutions from 30 μg/mL down to 0.5 ng/ml antibody, and 0 μg/mL antibody, and incubated for 30 min at 4° C. Following a washing step, the cells were incubated with a fluorescent goat anti-human IgG (H+L) secondary antibody (A-21445, Invitrogen) for 30 min at 4° C. in the dark. After a second wash, the cells were tested by high throughput flow cytometry (IQue screener, Sartorius). Data were transferred to Excel and graphs were generated using GraphPad Prism® software.

[6] = target: T4, cynomolgus NKG2A and cynomolgus CD94 expressed on transiently transfected CHO-S cells (cynomolgus, UniProt Q68VD2 1-233; Q68VD4 1-179); assay: as above
T4 construct: whole, on cells
Experimental: as §3

[7] = target: T1, human NKG2A and human CD94 expressed on …; assay: flow cytometry, CHO-S cells transiently transfected with NKG2A variant and CD94, AF647 goat anti-human IgG secondary (MFI) [cont.), panel 23765]
Experimental: (§4) Six anti-human NKG2A antibodies were tested for binding to the different heterodimers expressed. Antibodies were tested for binding to the transfected cells in 3-fold serial dilutions from 1 μg/mL antibody, and 0 μg/ml antibody, and incubated for 30 min at 4° C. Following a washing step, the cells were incubated with a fluorescent goat anti-human IgG (H+L) secondary antibody (A-21445, Invitrogen) for 30 min at 4° C. in the dark. After a second wash, the cells were tested by high throughput flow cytometry (IQue screener, Sartorius). Data were transferred to Excel and graphs were generated using GraphPad Prism® software. A reference antibody analogue and an isotype control were included for comparison.

I168S = target: T5, I168S (Homo sapiens); assay: as above
T5 construct: co-expressed on CHO-S cells; also called human NKG2A I168S / human CD94 heterodimer on CHO-S cells
T5 sequence (P26715 whole entry I168S): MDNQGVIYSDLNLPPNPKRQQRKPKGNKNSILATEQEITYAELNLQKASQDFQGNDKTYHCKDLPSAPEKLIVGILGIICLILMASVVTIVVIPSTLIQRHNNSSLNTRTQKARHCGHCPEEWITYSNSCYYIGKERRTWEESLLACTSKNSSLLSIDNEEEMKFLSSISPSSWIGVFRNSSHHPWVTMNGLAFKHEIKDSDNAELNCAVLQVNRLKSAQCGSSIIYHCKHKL
Experimental: as §4

I225M [8] = target: T6, I225M (Homo sapiens); assay: as above
T6 construct: co-expressed on CHO-S cells; also called human NKG2A I225M / human CD94 heterodimer on CHO-S cells
T6 sequence (P26715 whole entry I225M): as the sequence (P26715 whole entry I168S) above, with S168I, I225M counted along it
Experimental: as §4

[9] = target: T4, cynomolgus NKG2A and cynomolgus CD94 …; assay: blocking of PE-conjugated HLA-E pentamer binding to transiently transfected CHO-S cells, flow cytometry (percentage binding) [panel B cNKG2A]
Experimental: as §1

[10] = target: T1, human NKG2A and human CD94 expressed on …; assay: flow cytometry, CHO-S cells transiently transfected with NKG2A variant and CD94, AF647 goat anti-human IgG secondary (MFI) [cont.), panel 24135]
Experimental: as §4

I225M [11] = target: T6, I225M; assay: as above
Experimental: as §4

CD94 homodimer = target: T7, CD94 homodimer (human, UniProt Q13241 32-179, limits assumed); assay: SPR
T7 sequence (looked up): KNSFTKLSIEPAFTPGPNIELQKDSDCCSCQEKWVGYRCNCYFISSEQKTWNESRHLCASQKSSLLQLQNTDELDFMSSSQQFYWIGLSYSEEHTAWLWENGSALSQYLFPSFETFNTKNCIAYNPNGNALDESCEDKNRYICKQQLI
Experimental: as §2
The binding affinities and kinetic parameters of the anti-NKG2A mAbs binding to NKG2A/CD94 and NKG2C/CD94 heterodimers are shown in Table 7. […] None of the mAbs bound to CD94 homodimer (data not shown).

[12] = target: T1, human NKG2A and human CD94 expressed on …; assay: flow cytometry, transiently transfected CHO-S cells, AF647 goat anti-human IgG secondary (MFI) [cont.), panel 24135]
Experimental: as §3

I225M [13] = target: T6, I225M; assay: flow cytometry, CHO-S cells transiently transfected with NKG2A variant and CD94, AF647 goat anti-human IgG secondary (MFI) [cont.), panel 24208]
Experimental: as §4

NKG2A on primary human NK cells, sequence (P26715 whole entry): as the sequence (P26715 whole entry I168S) above, with S168I counted along it

Row | Binder | Kd [3] [nM] | koff [3] [s⁻¹] | kon [3] [M⁻¹ s⁻¹] | Kd [4] [nM] | koff [4] [s⁻¹] | kon [4] [M⁻¹ s⁻¹] | binding result [9] | binding result (CD94 homodimer) | other results
1 | BMS-NKG2A.11 (antibody, human IgG1, kappa, V domains shown) VH: EVQLVESGGGLVKPGGSLRLSCAASGFTFSSHSMNWVRQAPGKGLEWVSAISSSSSYIYYADSVKGRFTISRDNAKNSLYLQMNSLRAEDTAVYYCAREEWGLPFDYWGQGTLVTVSS VL: AIQLTQSPSSLSASVGDRVTITCRASQGIPSALAWYQQKPGKAPKLLIYDASSLKSGVPSRFSGSGSGTDFTLTISSLQPEDFATYYCQQFNSYPLTFGQGTRLEIKR |  |  |  |  |  |  |  |  | EC50 (ug/mL) of induced NK cell cytotoxicity, median (n = 6) [1]: 0.71 µg/mL
2 | antibody 23765 (antibody, human IgG1, kappa, L234A L235A, V domains shown, Fully human IgG1-LALA (L234A/L235A), kappa) VH: EVQLVESGGGLVKPGGSLRLSCAASGFTFSCCRMNWVRQAPGKGLEWVSSISSSSSYIYYADSVKGRFTISRDNAKNSLYLQMNSLRAEDTAVYYCARDGWNDVFDYWGQGTLVTVSS VL: EIVLTQSPATLSLSPGERATLSCRASQSVSSYLAWYQQKPGQAPRLLIYDASNRATGIPARFSGSGSGTDFTLTISSLEPEDFAVYYCQQRSNWPLTFGGGTKVEIKR | 717 | 0.00156 | 2180 | 15 | 0.0013 | 88000 |  |  | IC50 (read off the curve) [2]: ~0.6 µg/mL; EC50 (read off the curve) [5]: ~0.04 µg/mL; EC50 (read off the curve) [6]: ~0.02 µg/mL; EC50 (read off the curve) [7]: ~0.01 µg/mL; EC50 (read off the curve) (I168S): ~0.01 µg/mL; EC50 (read off the curve) (I225M [8]): ~0.01 µg/mL
3 | BMS-NKG2A.9 (antibody, human IgG1, kappa, V domains shown) VH: EVQLVESGGGLVKPGGSLRLSCAASGFTFSSHSMNWVRQAPGKGLEWVSAISSSSSYIYYADSVKGRFTISRDNAKNSLYLQMNSLRAEDTAVYYCAREEWGLPFDYWGQGTLVTVSS VL: AIQLTQSPSSLSASVGDRVTITCRASQGISSALAWYQQKPGKAPKLLIYDASSLKSGVPSRFSGSGSGTDFTLTISSLQPEDFATYYCQQFNSYPLTFGQGTRLEIKR |  |  |  |  |  |  |  |  | EC50 (ug/mL) of induced NK cell cytotoxicity, median (n = 7) [1]: 1.07 µg/mL

Now from value to binder, other results behind:

Row | Kd [3] [nM] | koff [3] [s⁻¹] | kon [3] [M⁻¹ s⁻¹] | Kd [4] [nM] | koff [4] [s⁻¹] | kon [4] [M⁻¹ s⁻¹] | binding result [9] | binding result (CD94 homodimer) | Binder | other results
4 | 147 | 0.00098 | 6700 | 3.7 | 0.0013 | 340000 | no binding (tested: 10000 ng/ml) | no binding | antibody 24135 (antibody, human IgG1, kappa, L234A L235A, V domains shown, Fully human IgG1-LALA (L234A/L235A), kappa; also called mAb 24135) VH: QVQLQESGPGLVKPSETLSLTCTVSGGSVSSGHYYWSWIRQPPGKGLEWIGYIYYSGSTTYNPSLKSRVSISVDTSKHQFSLKLSSVTAADTAVYYCARWAGSYQPYYYYYGMDVWGQGTTVTVSS VL: not shown | EC50 (read off the curve) [10]: ~0.005 µg/mL; EC50 (read off the curve) (I225M [11]): ~0.006 µg/mL; EC50 (read off the curve) [12]: ~0.02 µg/mL
5 |  |  |  |  |  |  | no binding (tested: 10000 ng/ml) | no binding | antibody 24208 (antibody, human IgG1, kappa, L234A L235A, V domains shown, Fully human IgG1-LALA (L234A/L235A), kappa; also called mAb 24208; 24208 (IgG1 LALA)) VH: QVQLVESGGGLVKPGGSLRLSCAASGFTFSDYYMRWIRQAPGKGLEWVSHISTSGSTIYYADSVKGRFTISRDNAKNSLYLQMNSLRAEDTAVYYCARDHYYSRGVIGYWGQGTLVTVSS VL: DIQMTQSPSSVSASVGDRVTITCRASQGISSWLAWYQQKPGKAPKLLIYAASSLQSGVPSRFSGSGSGTDFTLTISSLQPEDFATYYCQQANSFPYTFGQGTKLEIKR | EC50 (ug/mL) of induced NK cell cytotoxicity, median (n = 19) [1]: 0.19 µg/mL; EC50 (read off the curve) (I225M [13]): ~0.004 µg/mL
